What was measured:
[1] = biological target: GST-ErpB (Borrelia burgdorferi strain B31); assay: SPR
[2] = biological target: GST-ErpQ (Borrelia burgdorferi strain B31); assay: SPR

B1: C1r enzyme (activated form of human C1r) (enzyme)
chain 1: SIPIPQKLFGEVTSPLFPKPYPNNFETTTVITVPTGYRVKLVFQQFDLEPSEGCFYDYVKISADKKSLGRFCGQLGSPLGNPPGKKEFMSQGNKMLLTFHTDFSNEENGTIMFYKGFLAYYQAVDLDECASRSKSGEEDPQPQCQHLCHNYVGGYFCSCRPGYELQEDTHSCQAECSSELYTEASGYISSLEYPRSYPPDLRCNYSIRVERGLTLHLKFLEPFDIDDHQQVHCPYDQLQIYANGKNIGEFCGKQRPPDLDTSSNAVDLLFFTDESGDSRGWKLRYTTEIIKCPQPKTLDEFTIIQNLQPQYQFRDYFIATCKQGYQLIEGNQVLHSFTAVCQDDGTWHRAMPRCKIKDCGQPRNLPNGDFRYTTTMGVNTYKARIQYYCHEPYYKMQTRAGSRESEQGVYTCTAQGIWKNEQKGEKIPRCLPVCGKPVNPVEQRQR
chain 2: IIGGQKAKMGNFPWQVFTNIHGRGGGALLGDRWILTAAHTLYPKEHEAQSNASLDVFLGHTNVEELMKLGNHPIRRVSVHPDYRQDESYNFEGDIALLELENSVTLGPNLLPICLPDNDTFYDLGLMGYVSGFGVMEEKIAHDLRFVRLPVANPQACENWLRGKNRMDVFSQNMFCAGHPSLKQDACQGDSGGVFAVRDPNTDRWVATGIVSWGIGCSRGYGFYTKVLNYVDWIKKEMEEED
- Kd [1]: 100 nM
- Kd [2]: 97 nM

B2: C1s enzyme (activated form of human C1s) (enzyme)
chain 1: EPTMYGEILSPNYPQAYPSEVEKSWDIEVPEGYGIHLYFTHLDIELSENCAYDSVQIISGDTEEGRLCGQRSSNNPHSPIVEEFQVPYNKLQVIFKSDFSNEERFTGFAAYYVATDINECTDFVDVPCSHFCNNFIGGYFCSCPPEYFLHDDMKNCGVNCSGDVFTALIGEIASPNYPKPYPENSRCEYQIRLEKGFQVVVTLRREDFDVEAADSAGNCLDSLVFVAGDRQFGPYCGHGFPGPLNIETKSNALDIIFQTDLTGQKKGWKLRYHGDPMPCPKEDTPNSVWEPAKAKYVFRDVVQITCLDGFEVVEGRVGATSFYSTCQSNGKWSNSKLKCQPVDCGIPESIENGKVEDPESTLFGSVIRYTCEEPYYYMENGGGGEYHCAGNGSWVNEVLGPELPKCVPVCGVPREPFEEKQR
chain 2: IIGGSDADIKNFPWQVFFDNPWAGGALINEYWVLTAAHVVEGNREPTMYVGSTSVQTSRLAKSKMLTPEHVFIHPGWKLLEVPEGRTNFDNDIALVRLKDPVKMGPTVSPICLPGTSSDYNLMDGDLGLISGWGRTEKRDRAVRLKAARLPVAPLRKCKEVKVEKPTADAEAYVFTPNMICAGGEKGMDSCKGDSGGAFAVQDPNDKTKFYAAGLVSWGPQCGTYGLYTRVKNYVDWIMKTMQENSTPRED
- Kd [1]: 3.9 nM
- Kd [2]: 4.5 nM
